Assay [1] deals with T1, Fc-tagged SARS-CoV-2 S2 subunit (SARS-CoV-2; human, UniProt P0DTC2 686-1213).
T1 construct: domain: S2
Nature of the assay: CDS imaging on HEK293T cells expressing DC-SIGN, anti-human Fc detection.

The target in assay [2] is T2, Fc-tagged SARS-CoV-2 S N-terminal domain (SARS-CoV-2; human, UniProt P0DTC2 14-305).
T2 construct: domain: NTD
The assay is described as follows: Fc-tagged S domain on receptor-transfected HEK293T cells, CDS imaging.

The target in assay [3] is Human IgG1 Fc-tagged SARS-CoV-2 Spike (S) recombinant protein (SARS-CoV-2; human, UniProt P0DTC2 16-1213). Nature of the assay: Fc-tagged protein on receptor-transfected HEK293T cells, CDS imaging.
For assay [4], the target named is SARS-CoV-2 S protein displayed on lentiviral (HIV-GFP) pseudovirus (SARS-CoV-2, UniProt P0DTC2 14-1273). The assay is described as follows: pseudovirus on transfected HEK293T cells on ice, anti-S staining, flow cytometry. (Flow cytometry measures light scatter and fluorescence of single cells or particles in a stream.)
Assay [5] addresses T1, Fc-tagged SARS-CoV-2 S2 subunit. Nature of the assay: CDS imaging on HEK293T cells expressing LSECtin, anti-human Fc detection.
Assay [6] has as its target Recombinant SARS-CoV-2-S1 protein with His tag (SARS-CoV-2, UniProt P0DTC2 16-685).
For assay [7], the target named is T3, Human IgG1 Fc-tagged SARS-CoV-2 S receptor-binding domain (SARS-CoV-2; human, UniProt P0DTC2 319-541).
T3 construct: domain: RBD
The assay is described as follows: Fc-tagged protein on receptor-expressing HEK293T cells (FIG. 13B).

Assay [8] concerns the target T1, Fc-tagged SARS-CoV-2 S2 subunit. The assay is described as follows: CDS imaging on HEK293T cells expressing L-SIGN, anti-human Fc detection.

B1: Dendritic cell-specific intercellular adhesion molecule-3-grabbing nonintegrin expressed on cells (receptor)
chain: MSDSKEPRLQQLGLLEEEQLRGLGFRQTRGYKSLAGCLGHGPLVLQLLSFTLLAGLLVQVSKVPSSISQEQSRQDAIYQNLTQLKAAVGELSEKSKLQEIYQELTQLKAAVGELPEKSKLQEIYQELTRLKAAVGELPEKSKLQEIYQELTWLKAAVGELPEKSKMQEIYQELTRLKAAVGELPEKSKQQEIYQELTRLKAAVGELPEKSKQQEIYQELTRLKAAVGELPEKSKQQEIYQELTQLKAAVERLCHPCPWEWTFFQGNCYFMSNSQRNWHDSITACKEVGAQLVVIKSAEEQNFLQLQSSRSNRFTWMGLSDLNQEGTWQWVDGSPLLPSFKQYWNRGEPNNVGEEDCAEFSGNGWNDDKCNLAKFWICKKSAASCSRDEEQFLSPAPATPNPPPA
notes: whole, on cells; also called DC-SIGN; CD209
With B1, the binding result in assay [1] is given as “binds”.

B2: Asialoglycoprotein Receptor 1 expressed on cells (receptor)
chain: MTKEYQDLQHLDNEESDHHQLRKGPPPPQPLLQRLCSGPRLLLLSLGLSLLLLVVVCVIGSQNSQLQEELRGLRETFSNFTASTEAQVKGLSTQGGNVGRKMKSLESQLEKQQKDLSEDHSSLLLHVKQFVSDLRSLSCQMAALQGNGSERTCCPVNWVEHERSCYWFSRSGKAWADADNYCRLEDAHLVVVTSWEEQKFVQHHIGPVNTWMGLHDQNGPWKWVDGTDYETGFKNWRPEQPDDWYGHGLGGGEDCAHFTDDGRWNDDVCQRPYRWVCETELDKASQEPPLL
notes: whole, on cells; also called ASGR1
For the molecule B2, the binding result in assay [2], in assay [3] and in assay [4] was “binds” each time.

B3: C-type lectin domain family 10 member A expressed on cells (receptor)
chain: MTRTYENFQYLENKVKVQGFKNGPLPLQSLLQRLCSGPCHLLLSLGLGLLLLVIICVVGFQNSKFQRDLVTLRTDFSNFTSNTVAEIQALTSQGSSLEETIASLKAEVEGFKQERQAGVSELQEHTTQKAHLGHCPHCPSVCVPVHSEMLLRVQQLVQDLKKLTCQVATLNNNASTEGTCCPVNWVEHQDSCYWFSHSGMSWAEAEKYCQLKNAHLVVINSREEQNFVQKYLGSAYTWMGLSDPEGAWKWVDGTDYATGFQNWKPGQPDDWQGHGLGGGEDCAHFHPDGRWNDDVCQRPYHWVCEAGLGQTSQESH
notes: whole, on cells; also called CLEC10A
B3: the binding result in assay [3] and in assay [4] was “binds” each time.

B4: Liver and lymph node sinusoidal endothelial cell C-type lectin expressed on cells (receptor)
chain: MDTTRYSKWGGSSEEVPGGPWGRWVHWSRRPLFLALAVLVTTVLWAVILSILLSKASTERAALLDGHDLLRTNASKQTAALGALKEEVGDCHSCCSGTQAQLQTTRAELGEAQAKLMEQESALRELRERVTQGLAEAGRGREDVRTELFRALEAVRLQNNSCEPCPTSWLSFEGSCYFFSVPKTTWAAAQDHCADASAHLVIVGGLDEQGFLTRNTRGRGYWLGLRAVRHLGKVQGYQWVDGVSLSFSHWNQGEPNDAWGRENCVMMLHTGLWNDAPCDSEKDGWICEKRHNC
notes: whole, on cells; also called LSECtin; CLEC4G
For the molecule B4, the binding result in assay [5] is given as “binds”.

B5: Recombinant DC-SIGN (CD209) with human Fc tag (Fc fusion)
chain: QVSKVPSSISQEQSRQDAIYQNLTQLKAAVGELSEKSKLQEIYQELTQLKAAVGELPEKSKLQEIYQELTRLKAAVGELPEKSKLQEIYQELTWLKAAVGELPEKSKMQEIYQELTRLKAAVGELPEKSKQQEIYQELTRLKAAVGELPEKSKQQEIYQELTRLKAAVGELPEKSKQQEIYQELTQLKAAVERLCHPCPWEWTFFQGNCYFMSNSQRNWHDSITACKEVGAQLVVIKSAEEQNFLQLQSSRSNRFTWMGLSDLNQEGTWQWVDGSPLLPSFKQYWNRGEPNNVGEEDCAEFSGNGWNDDKCNLAKFWICKKSAASCSRDEEQFLSPAPATPNPPPA
Regarding B5, the “EC50 (read off the curve)” value in assay [6] is around 0.8 µg/mL.

B6: Tweety Family Member 2 expressed on cells (receptor)
chain: MQAARVDYIAPWWVVWLHSVPHVGLRLQPVNSTFSPGDESYQESLLFLGLVAAVCLGLNLIFLVAYLVCACHCRRDDAVQTKQHHSCCITWTAVVAGLICCAAVGVGFYGNSETNDGAYQLMYSLDDANHTFSGIDALVSGTTQKMKVDLEQHLARLSEIFAARGDYLQTLKFIQQMAGSVVVQLSGLPVWREVTMELTKLSDQTGYVEYYRWLSYLLLFILDLVICLIACLGLAKRSKCLLASMLCCGALSLLLSWASLAADGSAAVATSDFCVAPDTFILNVTEGQISTEVTRYYLYCSQSGSSPFQQTLTTFQRALTTMQIQVAGLLQFAVPLFSTAEEDLLAIQLLLNSSESSLHQLTAMVDCRGLHKDYLDALAGICYDGLQGLLYLGLFSFLAALAFSTMICAGPRAWKHFTTRNRDYDDIDDDDPFNPQAWRMAAHSPPRGQLHSFCSYSSGLGSQTSLQPPAQTISNAPVSEYMNQAMLFGRNPRYENVPLIGRASPPPTYSPSMRATYLSVADEHLRHYGNQFPA
notes: whole, on cells; also called TTYH2; TTHY2
Take B6: the binding result in assay [7] is on record as “binds”.

B7: Liver/lymph node-specific intercellular adhesion molecule-3-grabbing integrin expressed on cells (receptor)
chain: MSDSKEPRVQQLGLLEEDPTTSGIRLFPRDFQFQQIHGHKSSTGCLGHGALVLQLLSFMLLAGVLVAILVQVSKVPSSLSQEQSEQDAIYQNLTQLKAAVGELSEKSKLQEIYQELTQLKAAVGELPEKSKLQEIYQELTRLKAAVGELPEKSKLQEIYQELTRLKAAVGELPEKSKLQEIYQELTRLKAAVGELPEKSKLQEIYQELTELKAAVGELPEKSKLQEIYQELTQLKAAVGELPDQSKQQQIYQELTDLKTAFERLCRHCPKDWTFFQGNCYFMSNSQRNWHDSVTACQEVRAQLVVIKTAEEQNFLQLQTSRSNRFSWMGLSDLNQEGTWQWVDGSPLSPSFQRYWNSGEPNNSGNEDCAEFSGSGWNDNRCDVDNYWICKKPAACFRDE
notes: whole, on cells; also called L-SIGN; CLEC4M
With B7, the binding result in assay [8] is “binds”.

The term EC50 (read off the curve) denotes the concentration giving half of the maximal effect.

These data come from patent US20220089695A1 (NEW YORK UNIVERSITY, published 2022).
